Results published in patent publication US20220325265A1, “GLUCOCEREBROSIDASE MUTANTS” (Hoffmann-la Roche Inc., priority 2019, published 2022).
Several values for one entry are separate records, joined by “and”; a condition that tells them apart may be missing. Equal entries are not always repeated.

B1: R495HS2: hGCase based on the Cerezyme sequence (R495H) but produced in S2 cells, His8-tagged; Seq. Id. No. 1 (protein, listed as Homo sapiens)
chain: ARPCIPKSFGYSSVVCVCNATYCDSFDPPTFPALGTFSRYESTRSGRRMELSMGPIQANHTGTGLLLTLQPEQKFQKVKGFGGAMTDAAALNILALSPPAQNLLLKSYFSEEGIGYNIIRVPMASCDFSIRTYTYADTPDDFQLHNFSLPEEDTKLKIPLIHRALQLAQRPVSLLASPWTSPTWLKTNGAVNGKGSLKGQPGDIYHQTWARYFVKFLDAYAEHKLQFWAVTAENEPSAGLLSGYPFQCLGFTPEHQRDFIARDLGPTLANSTHHNVRLLMLDDQRLLLPHWAKVVLTDPEAAKYVHGIAVHWYLDFLAPAKATLGETHRLFPNTMLFASEACVGSKFWEQSVRLGSWDRGMQYSHSIITNLLYHVVGWTDWNLALNPEGGPNWVRNFVDSPIIVDITKDTFYKQPMFYHLGHFSKFIPEGSQRVGLVASQKNDLDAVALMHPDGSAVVVVLNRSSKDVPLTIKDPAVGFLETISPGYSIHTYLWHRQ
modifications: His8 tag
B2: I5N: recombinant human β-glucocerebrosidase variant R495H/I5N, S2 cells; Seq. Id. No. 4 (protein, listed as Homo sapiens)
chain: ARPCNPKSFGYSSVVCVCNATYCDSFDPPTFPALGTFSRYESTRSGRRMELSMGPIQANHTGTGLLLTLQPEQKFQKVKGFGGAMTDAAALNILALSPPAQNLLLKSYFSEEGIGYNIIRVPMASCDFSIRTYTYADTPDDFQLHNFSLPEEDTKLKIPLIHRALQLAQRPVSLLASPWTSPTWLKTNGAVNGKGSLKGQPGDIYHQTWARYFVKFLDAYAEHKLQFWAVTAENEPSAGLLSGYPFQCLGFTPEHQRDFIARDLGPTLANSTHHNVRLLMLDDQRLLLPHWAKVVLTDPEAAKYVHGIAVHWYLDFLAPAKATLGETHRLFPNTMLFASEACVGSKFWEQSVRLGSWDRGMQYSHSIITNLLYHVVGWTDWNLALNPEGGPNWVRNFVDSPIIVDITKDTFYKQPMFYHLGHFSKFIPEGSQRVGLVASQKNDLDAVALMHPDGSAVVVVLNRSSKDVPLTIKDPAVGFLETISPGYSIHTYLWHRQ
notes: recombinant human β-glucocerebrosidase variant R495H/I5N, S2 cells; Id; No. 4
B3: K321N/H145L: Amicus double mutant hGCase R495H/K321N/H145L produced in S2 cells; Seq. Id. No. 3 (protein, listed as Homo sapiens)
chain: ARPCIPKSFGYSSVVCVCNATYCDSFDPPTFPALGTFSRYESTRSGRRMELSMGPIQANHTGTGLLLTLQPEQKFQKVKGFGGAMTDAAALNILALSPPAQNLLLKSYFSEEGIGYNIIRVPMASCDFSIRTYTYADTPDDFQLLNFSLPEEDTKLKIPLIHRALQLAQRPVSLLASPWTSPTWLKTNGAVNGKGSLKGQPGDIYHQTWARYFVKFLDAYAEHKLQFWAVTAENEPSAGLLSGYPFQCLGFTPEHQRDFIARDLGPTLANSTHHNVRLLMLDDQRLLLPHWAKVVLTDPEAAKYVHGIAVHWYLDFLAPANATLGETHRLFPNTMLFASEACVGSKFWEQSVRLGSWDRGMQYSHSIITNLLYHVVGWTDWNLALNPEGGPNWVRNFVDSPIIVDITKDTFYKQPMFYHLGHFSKFIPEGSQRVGLVASQKNDLDAVALMHPDGSAVVVVLNRSSKDVPLTIKDPAVGFLETISPGYSIHTYLWHRQ
notes: Amicus double mutant hGCase R495H/K321N/H145L produced in S2 cells; Id; No. 3
B4: K321N: Amicus single mutant hGCase R495H/K321N produced in S2 cells; Seq. Id. No. 2 (protein, listed as Homo sapiens)
chain: ARPCIPKSFGYSSVVCVCNATYCDSFDPPTFPALGTFSRYESTRSGRRMELSMGPIQANHTGTGLLLTLQPEQKFQKVKGFGGAMTDAAALNILALSPPAQNLLLKSYFSEEGIGYNIIRVPMASCDFSIRTYTYADTPDDFQLHNFSLPEEDTKLKIPLIHRALQLAQRPVSLLASPWTSPTWLKTNGAVNGKGSLKGQPGDIYHQTWARYFVKFLDAYAEHKLQFWAVTAENEPSAGLLSGYPFQCLGFTPEHQRDFIARDLGPTLANSTHHNVRLLMLDDQRLLLPHWAKVVLTDPEAAKYVHGIAVHWYLDFLAPANATLGETHRLFPNTMLFASEACVGSKFWEQSVRLGSWDRGMQYSHSIITNLLYHVVGWTDWNLALNPEGGPNWVRNFVDSPIIVDITKDTFYKQPMFYHLGHFSKFIPEGSQRVGLVASQKNDLDAVALMHPDGSAVVVVLNRSSKDVPLTIKDPAVGFLETISPGYSIHTYLWHRQ
notes: Amicus single mutant hGCase R495H/K321N produced in S2 cells; Id; No. 2
B5: M53T/P55T: recombinant human β-glucocerebrosidase variant R495H/M53T/P55T, S2 cells; Seq. Id. No. 7 (protein, listed as Homo sapiens)
chain: ARPCIPKSFGYSSVVCVCNATYCDSFDPPTFPALGTFSRYESTRSGRRMELSTGTIQANHTGTGLLLTLQPEQKFQKVKGFGGAMTDAAALNILALSPPAQNLLLKSYFSEEGIGYNIIRVPMASCDFSIRTYTYADTPDDFQLHNFSLPEEDTKLKIPLIHRALQLAQRPVSLLASPWTSPTWLKTNGAVNGKGSLKGQPGDIYHQTWARYFVKFLDAYAEHKLQFWAVTAENEPSAGLLSGYPFQCLGFTPEHQRDFIARDLGPTLANSTHHNVRLLMLDDQRLLLPHWAKVVLTDPEAAKYVHGIAVHWYLDFLAPAKATLGETHRLFPNTMLFASEACVGSKFWEQSVRLGSWDRGMQYSHSIITNLLYHVVGWTDWNLALNPEGGPNWVRNFVDSPIIVDITKDTFYKQPMFYHLGHFSKFIPEGSQRVGLVASQKNDLDAVALMHPDGSAVVVVLNRSSKDVPLTIKDPAVGFLETISPGYSIHTYLWHRQ
notes: recombinant human β-glucocerebrosidase variant R495H/M53T/P55T, S2 cells; Id; No. 7

Key:
[1] = Determination of the kinetic parameters (Michaelis-Menten) with artificial substrate; type: biochemical; conditions: for kcat: protein concentration used: 25 nM; for Km / Vmax: res-β-glc 4-500 μM, 25 nM protein
Protocol: The kinetic parameters were examined using the artificial substrate resorufin-β-glucopyranoside (Sigma-Aldrich). For the determination, final concentrations of substrate ranging from 4-500 μM were tested. The assay followed the activity assay instructions in section 2.3.5. 25 nM final protein concentration was used for each construct. The incubation time was set to 30 min to ensure measurements in the linear signal range. The kinetics were evaluated and plotted according to Michaelis-Menten (Cornish-Bowden, 2013; Johnson, 2015). KM, Vmax was calculated by GraphPad Prism7 applying the Michaelis-Menten fit equation provided by the program. The equation model follows: […]
with: • KM: Michaelis-Menten constant [μM] • Vmax: maximum velocity of reaction [μM/min]
The kinetic parameter kcat is defined as the catalytic constant, representing the turnover number of substrate to product per time unit (here per second) (Eisenthal et al., 2007). kcat can be calculated as follows: […]
with: • kcat: turnover number [min-1] • Vmax: maximum velocity of reaction [μM/min] • [E]tot.: total enzyme concentration [nM]
Another kinetic key parameter to describe the catalytic efficiency of enzymes is the parameter kcat/KM, measured in [μM−1*s−1] in this work (Eisenthal et al., 2007).
Determining enzyme kinetic key parameters gives solid information about the efficiency and efficacy of an enzyme and how certain mutations can impact its functionality. For the determination and comparison of the enzymatic performances, KM, Vmax and kcat as well as kcat/KM were calculated for the different hGCase variants, respectively (Eisenthal et al., 2007). The according assay was performed as described in section 2.5.5, all measured with the artificial substrate res-3-glc. KM and Vmax determination for representative mutant M53T/P55T was done applying the Michaelis-Menten curve fit (GraphPad Prism7; see equation 4) as shown in the following.
The kinetic raw data is depicted in FIG. 5 (A) with progression curves following pseudo first order in a linear measurement range with a good reproducibility and low variance. The slopes of the progression curves can be replotted, with velocities V [μM/min] plotted as a function of substrate concentration [S] applied, resulting in a typical course of a Michaelis-Menten curve (Cornish-Bowden, 2013; Johnson, 2015).

hGCase [2] = assay: Inhibition of hGCase using conditurol-β-epoxide (CBE), IC50 determination; type: biochemical, human; conditions: irreversible inhibitor conditurol-β-epoxide on the named hGCase variant; 25 nM protein, 10 min pre-incubation, 20 μM res-β-glc
Protocol: CBE is an irreversible inhibitor of glucocerebrosidases which covalently binds to the active site of the enzyme (Liou et al., 2006).
A stock solution of 100 mM CBE in H2Oultrapure was prepared. For IC50 determination, CBE concentrations ranging from 0.04-2500 μM were tested. Again, the final enzyme concentration was 25 nM. After adding the inhibitor, the enzyme was pre-incubated for 10 min before initializing the activity measurement by adding the substrate (20 μM).
IC50 evaluations were done in the same manner as described for IFG (see section above). The IC50 calculations were done using GraphPad Prism7 following equation 9.
(§1) To determine whether the active binding site of an enzyme is compromised or altered, IC50 values were calculated for active site inhibitor and compared. In this work, the natural occurring GCase inhibitor isofagomine (IFG) and conditurol-β-epoxide (CBE) were used. IFG is known as a reversible inhibitor, interacting with the active site of the GCase enzyme, whereas CBE is an irreversible inhibitor of GCase (Powe et al., 2006). The IC50 of an enzyme is defined as the concentration of an inhibitor, where the response, in this case the enzyme activity, is reduced by half (Kalliokoski et al., 2013). Both assays were conducted as described in section 2.5.6. The inhibitor profiles of M53T/P55T using IFG and CBE as well as the IC50 profiles of all residual mutants combined are shown in FIG. 4.
(§2) The raw data was plotted by transforming the applied IFG/CBE concentration to a logarithmic scale (x-axis, FIG. 4) and by normalizing the activity signal with highest signal of each data set to 100% (defined with apparent inhibitor concentration of 10-12 μM, equal to no inhibitor). IC50 values were calculated using GraphPad Prism7 following equation 9.

hGCase [3] = assay: Inhibition of hGCase using isofagomine (IFG), IC50 determination; type: biochemical, human; conditions: reversible inhibitor isofagomine on the named hGCase variant; 25 nM protein, 10 min pre-incubation at RT, 20 μM res-β-glc
Protocol: IFG is a competitive, reversible inhibitor of hGCase, interacting with the active pocket of the enzyme (Powe et al., 2006).
To calculate the IC50, a concentration range of 0.002-100 μM IFG was tested. IFG was prepared with a stock concentration of 1 mM in DMSO. The final enzyme concentration was 25 nM. After adding the inhibitor to the enzyme, the solution was pre-incubated for 10 min at RT before adding the substrate (20 μM) for the activity measurement.
The evaluation and IC50 determination were done using GraphPad Prism7. hGCase activity with no inhibitor added was set to 100% relative enzyme activity. In case of evaluating the raw data via GraphPadPrism7, the applied inhibitor concentrations were first transformed to log 10×-values plottet on the x-axis. Further, the raw data measured with the activity assay in RFU was normalized to the highest activity value within one data set (equals 100%). 100% signal was defined as 10-12 μM IFG (=no inhibitor added). Data points were fitted and IC50 values were determined using log(inhibitor) vs. response-variable slope (four parameters) (GraphPadPrism7) following equation 9: […]
as §1, §2

| Molecule | kcat [1] [s⁻¹] | Km [1] | Vmax [1] | IC50 (hGCase [2]) | IC50 (hGCase [3]) |
| --- | --- | --- | --- | --- | --- |
| B1 | 0.05 | 189 ± 45.5 µM | 0.08 ± 0.01 µM/min and 0.08 µM/min | 55000 ± 3000 nM | 17 nM |
| B2 | 0.09 | 118 µM | 0.14 µM/min |  | 26 ± 3 nM |
| B3 | 0.09 | 158 µM and 156 µM | 0.13 µM/min | 35000 nM | 35 ± 11 nM |
| B4 | 0.09 | 131 µM | 0.14 µM/min | 28000 nM | 28 ± 3 nM |
| B5 | 0.09 | 100 ± 15.8 µM | 0.13 ± 0.01 µM/min and 0.13 µM/min | ~76000 nM and 76000 nM | ~40 nM and 40 nM |
